Residue numbers refer to the chain shown, from its start. Names may count otherwise.
Experiments:
human IL-6 [1] = target: T1, human IL-6 (human, UniProt P05231 30-212); test: cell-based or functional assay
hyper IL-6 = test: cell-based or functional assay
human IL-6 [2] = target: T1, human IL-6; test: yeast Fab display; biotinylated IL-6 remaining after overnight competition with 2 uM IL-6
human IL-6 [3] = target: T1, human IL-6; test: yeast system; format in the assay not stated
[4] = target: T2, IL-6R on HEK-Blue IL6 reporter cells (UniProt P08887 20-468, limits assumed); test: cell-based or functional assay
T2 sequence (looked up): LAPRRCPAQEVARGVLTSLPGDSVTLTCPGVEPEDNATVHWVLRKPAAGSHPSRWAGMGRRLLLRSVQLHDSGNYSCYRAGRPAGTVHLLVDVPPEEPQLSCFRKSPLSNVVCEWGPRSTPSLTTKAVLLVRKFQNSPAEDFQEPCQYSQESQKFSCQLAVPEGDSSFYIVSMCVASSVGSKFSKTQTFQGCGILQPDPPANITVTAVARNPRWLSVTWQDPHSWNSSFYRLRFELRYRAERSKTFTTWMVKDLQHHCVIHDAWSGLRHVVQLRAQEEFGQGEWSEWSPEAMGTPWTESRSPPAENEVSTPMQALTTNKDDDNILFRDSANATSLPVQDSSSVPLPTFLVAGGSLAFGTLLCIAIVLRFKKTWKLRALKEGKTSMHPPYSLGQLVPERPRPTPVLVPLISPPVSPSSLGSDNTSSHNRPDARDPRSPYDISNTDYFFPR

human IL-6 [5] = target: T1, human IL-6; test: ELISA on plates coated with human IL-6, hybridoma supernatants

B1: EBI-030 IgG2 (antibody)
heavy: QVQLVQSGAEVKKPGSSVKVSCKASGYVLPNYLIEWVRQAPGQGLEWMGVTTPGGGTINYAQKFQGRVTITADESTSTAYMELSSLRSEDTAVYYCARSRWDPLYYYALEYWGQGTTVTVSSASTKGPSVFPLAPCSRSTSESTAALGCLVKDYFPEPVTVSWNSGALTSGVHTFPAVLQSSGLYSLSSVVTVPSSNFGTQTYTCNVDHKPSNTKVDKTVERKCCVECPPCPAPPVAGPSVFLFPPKPKDTLMISRTPEVTCVVVDVSHEDPEVQFNWYVDGVEVHNAKTKPREEQFNSTFRVVSVLTVVHQDWLNGKEYKCKVSNKGLPAPIEKTISKTKGQPREPQVYTLPPSREEMTKNQVSLTCLVKGFYPSDIAVEWESNGQPENNYKTTPPMLDSDGSFFLYSKLTVDKSRWQQGNVFSCSVMHEALHNHYTQKSLSLSPGK
light: DIVMTQSPDSLAVSLGERATINCRASESVDNYGIPFMNWYQQKPGQPPKLLIYAASNRGSGVPDRFSGSGSGTDFTLTISSLQAEDVAVYYCQQSEEVPLTFGQGTKLEIKRTVAAPSVFIFPPSDEQLKSGTASVVCLLNNFYPREAKVQWKVDNALQSGNSQESVTEQDSKDSTYSLSSTLTLSKADYEKHKVYACEVTHQGLSSPVTKSFNRGEC
IC50 fold less than that of EBI-029, HEK-Blue IL6 cells (human IL-6 [1]): > 50 fold
IC90 fold less than that of EBI-029, HEK-Blue IL6 cells (human IL-6 [1]): ~4000 fold
fold decrease in IC50 against EBI-029, HEK-Blue IL6 cells, 20 pM IL-6 (human IL-6 [1]): ~50 fold
fold decrease in IC90 against EBI-029, HEK-Blue IL6 cells, 20 pM IL-6 (human IL-6 [1]): > 100 fold

B2: EBI-031 (antibody, human IgG2, kappa)
heavy: B1 heavy with H311A
light: B1 light
IC50, trans-signaling, HEK-Blue IL6 cells, 200 pM hyper IL-6 (hyper IL-6): 32 pM
fold more potent than tocilizumab, cellular assays (hyper IL-6): > 900 fold
IC50, cis-signaling, HEK-Blue IL6 cells, 20 pM free IL-6 (human IL-6 [1]): 14.2 pM
IC50 fold less than that of EBI-029, HEK-Blue IL6 cells (human IL-6 [1]): > 75 fold
IC90 fold less than that of EBI-029, HEK-Blue IL6 cells (human IL-6 [1]): ~350 fold
fold decrease in IC50 against EBI-029, HEK-Blue IL6 cells, 20 pM IL-6 (human IL-6 [1]): ~50 fold
fold decrease in IC90 against EBI-029, HEK-Blue IL6 cells, 20 pM IL-6 (human IL-6 [1]): > 100 fold
fold greater potency than tocilizumab, cis-signaling, HEK-Blue IL6 cells (human IL-6 [1]): > 900 fold

B3: EBI-029 Fab I51T/S55G (Fab, V domains shown)
VH: QVQLVQSGAEVKKPGSSVKVSCKASGYALSNYLIEWVRQAPGQGLEWMGVTTPGGGTINYAQKFQGRVTITADESTSTAYMELSSLRSEDTAVYYCARSRWDPLYYYALEYWGQGTTVTVSS
VL: DIVMTQSPDSLAVSLGERATINCRASESVDNYGIPFMNWYQQKPGQPPKLLIYAASNRGSGVPDRFSGSGSGTDFTLTISSLQAEDVAVYYCQQSEEVPLTFGQGTKLEIKR
notes: The mutations were introduced into the wild-type EBI-029 Fab; also called 151T/S55G
binding result (human IL-6 [2]): binds

B4: h64 IgG (antibody, V domains shown)
VH: B3 VH with L29F, T51I, G55S
VL: DIVMTQSPDSLAVSLGERATINCRASESVDNYGISFMNWYQQKPGQPPKLLIYAASNQGSGVPDRFSGSGSGTDFTLTISSLQAEDVAVYYCQQSKEVPLTFGQGTKLEIK
notes: Expressed as inline fusions with the human IgG1 constant domains; also called original h64 antibody; the original humanized molecule
Kd (human IL-6 [3]): 0.343 nM

B5: EBI-029 Fab S30P/I51T/S55G (Fab, V domains shown)
VH: B3 VH with S30P
VL: B3 VL
binding result (human IL-6 [2]): binds

B6: EBI-029 Fab A28V/I51T/S55G (Fab, V domains shown)
VH: B3 VH with A28V
VL: B3 VL
binding result (human IL-6 [2]): binds

B7: Tocilizumab (antibody, human IgG1, kappa, V domains shown)
VH: QVQLQESGPGLVRPSQTLSLTCTVSGYSITSDHAWSWVRQPPGRGLEWIGYISYSGITTYNPSLKSRVTMLRDTSKNQFSLRLSSVTAADTAVYYCARSLARTTAMDYWGQGSLVTVSS
VL: DIQMTQSPSSLSASVGDRVTITCRASQDISSYLNWYQQKPGKAPKLLIYYTSRLHSGVPSRFSGSGSGTDFTFTISSLQPEDIATYYCQQGNTLPYTFGQGTKVEIKR
IC50, cis-signaling, HEK-Blue IL6 cells, 20 pM free IL-6 [4]: 12.9 nM

B8: murine 64 antibody (antibody, V domains shown)
VH: QVQLQQSGAELVRPGTSVKVSCKASGYAFSNYLIEWVKQRPGQGLEWIGVITPGSGTINYNEKFKGKAVLTADKSSSTVYMQLSSLTSDDSAVYFCAKSRWDPLYYYALEYWGQGTSVTVSS
VL: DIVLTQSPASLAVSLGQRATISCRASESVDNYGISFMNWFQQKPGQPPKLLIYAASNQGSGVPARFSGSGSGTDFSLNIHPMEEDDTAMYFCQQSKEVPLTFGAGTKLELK
notes: Murine monoclonal from a hybridoma; also called Hybridoma 64; m64
binding result (human IL-6 [5]): binds

Source: patent WO2016073894A1 (dated 2016)
